9 molecules from patent publication US20200247886A1 (ZLIP, published 2020) can be followed below.

Bounds are passed on as bounds.

The target in test [1] is T1, biotin labelled polyhistidine tagged CD47 protein (Novoprotein, Cat#321) (human, UniProt Q08722 19-139, biotin labelled (site not stated)).
T1 construct: Bought protein; also called biotinylated CD47; biotinylated human CD47 protein; not shown: polyhistidine tag
The test can be described thus: IC50 (nM) as grade, Fab blocking biotinylated CD47 binding to SIRPα-CHO cells; legend ++: >10 nM and <65 nM.

Test [2] addresses T2, human CD47 expressed on cells (CD47 expressing CHO cells, Jurkat, HL60, DLD1, Raji) (human, UniProt Q08722 19-292).
T2 construct: also called CHO-CD47; IAP
The test can be described thus: EC50 (nM) as grade, flow cytometry, Fab on HL60 cells; legend +++: <1 nM.

For test [3], the target named is T2, human CD47 expressed on cells (CD47 …). The test can be described thus: EC50 (nM) as grade, flow cytometry, Fab on DLD1 cells; legend +: >60 nM.
Test [4] deals with T3, His-tagged CD47 (Homo sapiens (Human), UniProt Q08722 19-139, limits assumed).
T3 construct: not shown: His tag
The test can be described thus: flow cytometry blocking assay: His-tagged CD47 with Fab on SIRPα-expressing CHO cells (SIRPα is the blocked ligand), anti-His-APC, MFI.

Test [5] deals with T3, His-tagged CD47. Description: flow cytometry blocking assay: His-tagged CD47 with Fab on SIRPα-expressing CHO cells (SIRPα is the blocked ligand), anti-His-APC, frequency.
Test [6] has as its target T3, His-tagged CD47. The test can be described thus: IC50 (nM) Frequency as grade, blocking His-tagged CD47 binding to SIRPα-CHO cells; legend +: >2.7 nM.
The target in test [7] is T2, human CD47 expressed on cells (CD47 …). The test can be described thus: EC50 (nM) as grade, flow cytometry, Fab on DLD1 cells; legend ++: >5 nM and <60 nM.
Test [8] addresses T3, His-tagged CD47. The test can be described thus: IC50 (nM) MFI as grade, blocking His-tagged CD47 binding to SIRPα-CHO cells; legend +++: <2 nM.
For test [9], the target named is T1, biotin labelled polyhistidine tagged …. Description: IC50 (nM) as grade, Fab blocking biotinylated CD47 binding to SIRPα-CHO cells; legend +: >65 nM.
The target of test [10] is T2, human CD47 expressed on cells (CD47 …). Description: IC50 as grade, SIRPα blocking on Raji cells; legend ++: >1 nM and <20 nM.
Test [11] has the same target. Description: IC50 as grade, SIRPα blocking on Raji cells (second part of the table); legend ++: >1 nM and <20 nM.
For test [12] the target is unchanged. The test can be described thus: flow cytometry on human platelets, donor 1, MFI.
The target is the same in test [13]. Description: flow cytometry blocking assay on Raji cells, SIRPα is the blocked ligand, MFI.
Test [14] shares this target. Description: flow cytometry on human platelets, donor 2, MFI.
Test [15] shares this target. The test can be described thus: flow cytometry on human red blood cells, donor 1, MFI.
For test [16] the target is unchanged. Description: flow cytometry on human red blood cells, donor 2, MFI.
For test [17] the target is unchanged. Description: IC50 as grade, SIRPα blocking on Raji cells; legend +: >20 nM.
The target is the same in test [18]. The test can be described thus: EC50 (nM) as grade, flow cytometry, Fab on DLD1 cells; legend +++: <5 nM.

B1: ABU11 (Fab) (Fab, V domains shown)
VH: EVQLQQPGAELVRPGSSVKLSCKASGYSFTTYWMHWVKQRPGQGLEWIGNINPSSGDSHYNEKFKSKATLTVDKSSSTAYLQLNSLTSEDSAVYYCARDYYGAYWGHGTLVTVSA
VL: DIQMTQSPASLSASVGETVTITCRASENVYSYLAWYQQKQGKSPQLLVYKANTLAEGVPSRFSGSGSGTQFSLKINSLQPEDFGTYYCQHHYGTPLTFGSGTKLEIK
notes: Phage-derived Fab: murine VL and VH fused to human CL and CH1
With B1, the IC50 in test [1] fell in the range of 10 to 65 nM. The EC50 was below 1 nM in test [2] and above 60 nM in test [3].

B2: ABU40 (Fab) (Fab, V domains shown)
VH: EVQLQQPGTELVKPGASVKLSCKASGYSFTTYWMHWVKQRPGQGLEWIGNINPSSGDSHYNEKFKSKATLTVDKSSSTAYMQLNSLTSEDSAVYYCARDYYGAYWGHGTLVTVSA
VL: DIQMTQSPASLSASVGETVTITCRASENIYSYLAWYQQKQGKSPQLLVYNAKTLAEGVPSRFSGSGSGTQFSLKINSLQPEDFGSYYCQHHYGTPLTFGAGTKLELK
notes: as for B1
As for B2, the “IC50 (read off the curve)” value was around 2 nM in the test with His-tagged CD47 [4] and around 3 nM with His-tagged CD47 [5]. Further, the half-maximal inhibitory concentration (IC50) is above 2.7 nM with His-tagged CD47 [6], 10 to 65 nM in test [1] and below 2 nM with His-tagged CD47 [8]. In addition, the figures for the EC50 in [7] and in [2] were 5 to 60 nM and below 1 nM, respectively.

B3: ABU20 (Fab) (Fab, V domains shown)
VH: RGKVQESGPGLVKPSQSLSLTCSVTGYSITSGYYWNWIRQFPGNKLEWMGYINYDGSNNYNPSLKNRISITRDTSKNQFFLKLNSVTTEDTATYYCARGYYYGSSYGYWYFDVWGTGTTVTVSS
VL: DAVVTQESALTTSPGETVTLTCRSSTGAVTTNNYANWVQEKPDHLFTGLIGGTNNRAPGVPARFSGSLIGDKAALTITGAQTEDEAIYFCALWYSNHLVFGGGTKLTVL
notes: as for B1
B3 had an IC50 in [1] of 10 to 65 nM. The EC50 in test [2] was below 1 nM; in test [3], above 60 nM.

B4: ABU24 (Fab) (Fab, V domains shown)
VH: EVQLQQPGTELVKPGASVKLSCKASGYTFTSYWMHWVKQRPGQGLEWIGNVVPNNDGTNYNEKFRNKATLTVDKSSSTAYMQLSSLTSEDSAVYYCAVTYFAYWGQGTLVTVSA
VL: DAVVTQESALTTSPGETVTLTCRSSTGAVSTSNYANWVQEKPDHLFTGLIGGTNNRAPGVPARFSGSLIGDKAALTITGAQTEDEAIYFCALWYSNHWVFGGGTKLTVL
notes: as for B1
For the molecule B4, the IC50 in test [9] was above 65 nM. Also, the EC50 is 5 to 60 nM in test [7] and below 1 nM in [2].

B5: H-ABU 5 (antibody, V domains shown)
VH: QVQLVQSGAEVKKPGASVKVSCKASGYTFTDNYINWVRQAPGQRLEWMGWIYLGSGNTKYNEKFKGRVTITRDTSASTAYMELSSLRSEDTAVYYCARREERGFAVWGQGTLVTVSS
VL: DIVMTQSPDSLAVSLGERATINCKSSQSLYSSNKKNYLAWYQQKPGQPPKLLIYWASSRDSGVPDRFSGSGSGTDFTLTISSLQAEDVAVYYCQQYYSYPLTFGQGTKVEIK
The molecule B5 returned an IC50 in test [10] of 1 to 20 nM.

B6: H-ABU 9 (antibody, V domains shown)
VH: QVQLVQSGAEVKKPGASVKVSCKASGYTFTDLYINWVRQAPGQRLEWMGWIYLGSGNTKYNEKFKGRVTITRDTSASTAYMELSSLRSEDTAVYYCARREERGFAYWGQGTLVTVSS
VL: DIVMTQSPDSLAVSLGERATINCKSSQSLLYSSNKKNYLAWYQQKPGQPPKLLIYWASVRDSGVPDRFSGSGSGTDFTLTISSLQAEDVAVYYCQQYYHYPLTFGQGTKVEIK
Molecule B6 registered an IC50 in [11] of 1 to 20 nM. The concentration giving a half-maximal response (EC50 (read off the curve)) in test [12] is around 1 nM. The “IC50 (read off the curve)” value in test [13] is around 8 nM.

B7: H-ABU 10 (antibody, V domains shown)
VL: DIVMTQSPDSLAVSLGERATINCKSSQSLVSSSQKNYLAWYQQKPGQPPKLLIYWASVRDSGVPDRFSGSGSGTDFTLTISSLQAEDVAVYYCQQYYSYPLTFGQGTKVEIK
VH: QVQLVQSGAEVKKPGASVKVSCKASGYTFTDNYINWVRQAPGQRLEWMGWIYLGSGNTKYNEKFKGRVTITRDTSASTAYMELSSLRSEDTAVYYCARREERGFAPWGQGTLVTVSS
Consider B7, for which the “EC50 (read off the curve)” value in test [14] was around 0.6 nM; in test [15], around 3 nM; in [16] it was around 3 nM; in test [12] it was around 0.6 nM. Besides, in [11], the IC50 was 1 to 20 nM. Moreover, the “IC50 (read off the curve)” value in test [13] was around 1 nM.

B8: H-ABU 3 (antibody, V domains shown)
VH: QVQLVQSGAEVKKPGASVKVSCKASGYTFTDSYINWVRQAPGQRLEWMGWIYTGSGNTKYNEKFKGRVTITRDTSASTAYMELSSLRSEDTAVYYCARREERGFAYWGQGTLVTVSS
VL: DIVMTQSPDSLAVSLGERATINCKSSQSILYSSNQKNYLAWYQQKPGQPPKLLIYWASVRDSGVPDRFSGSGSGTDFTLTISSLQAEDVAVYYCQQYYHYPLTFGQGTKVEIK
B8 gave an IC50 in test [17] above 20 nM.

B9: ABU16 (Fab) (Fab, V domains shown)
VH: RVQLQQSGAELVRPGTSVKVSCKASAYAFTNYLIEWVKKRPGQGLEWIGVINPGSGGTNYNEKFKGKATLTADKSSSTAYMQLSSLTSEDSAVYFCARGDGYGSLFAYWGQGTLVTVSA
VL: RHCFNQSPAIMSASPGEKVTMTCSASSSVSYMHWYQQKSGTSPKRWIYDTSNLASGVPVRFSGSGSGTSYSLTISRMEAEDAATYYCQQWSNYPFTFGSGTKLELK
notes: as for B1
B9 registered an IC50 in [9] above 65 nM. Moreover, the EC50 in test [18] is below 5 nM; in test [2], below 1 nM.
